Several values for one entry are separate records, joined by “and”; a condition that tells them apart may be missing. Equal entries are not always repeated.
Target: CD16 (activating FcγRIIIa, CD16a) on NK cells (UniProt P08637)
Test: cell-based or functional assay

Chain of UniProt P08637 (P08637 17-254 limits assumed): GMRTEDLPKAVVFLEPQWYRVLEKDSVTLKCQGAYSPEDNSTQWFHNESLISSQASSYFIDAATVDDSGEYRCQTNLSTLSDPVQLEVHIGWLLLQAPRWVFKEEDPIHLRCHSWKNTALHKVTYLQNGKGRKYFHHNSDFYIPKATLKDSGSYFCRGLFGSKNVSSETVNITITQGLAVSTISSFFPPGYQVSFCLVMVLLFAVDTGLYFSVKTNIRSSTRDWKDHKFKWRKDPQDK

CD16 positive % on NK cells after PMA (1 ug/mL, 1 hour), ADAM17 edited cells | CD16 positive % on NK cells after PMA (1 ug/mL, 1 hour), EP controls (ADAM17 intact) [%] | Substance
72.4% and 92% | – | a disintegrin and metalloproteinase domain-containing protein 17 (ADAM17) (from UniProt P78536 215-824)
– | 0.62 to 6 | a disintegrin and metalloproteinase domain-containing protein 17 (ADAM17) (from UniProt P78536 215-824) (enzyme)

— US20260144872A1
